Assays:
[1] = target: RUNX1 K83E;CBFβ (Homo sapiens;Homo sapiens?, UniProt Q01196;Q13951 1-181;1-141, K83E|); experiment: ITC; RUNX1:CBFβ 1:2; no significant enthalpy change; ITC: 20 uM RUNX1 in cell, 100 uM DNA in syringe, 10 mM HEPES-NaOH pH 7.5, 180 mM NaCl, 0.005% Tween 20; temperature stated as 277 K (Methods) but 25 °C (Results); conditions: protein: recombinant;recombinant; tags: N-terminal His6;; copies: 1;1; (21 bp)
[2] = target: RUNX1 K83R/H179K;CBFβ (Homo sapiens;Homo sapiens?, UniProt Q01196;Q13951 1-181;1-141, K83R;H179K|); experiment: ITC; RUNX1:CBFβ 1:2; ITC: 20 uM RUNX1 in cell, 100 uM DNA in syringe, 10 mM HEPES-NaOH pH 7.5, 180 mM NaCl, 0.005% Tween 20; temperature stated as 277 K (Methods) but 25 °C (Results); conditions: protein: recombinant;recombinant; tags: N-terminal His6;; copies: 1;1; (21 bp)
Chain of RUNX1 K83R/H179K;CBFβ (Q01196 1-181 K83R/H179K, chain 1 of 2): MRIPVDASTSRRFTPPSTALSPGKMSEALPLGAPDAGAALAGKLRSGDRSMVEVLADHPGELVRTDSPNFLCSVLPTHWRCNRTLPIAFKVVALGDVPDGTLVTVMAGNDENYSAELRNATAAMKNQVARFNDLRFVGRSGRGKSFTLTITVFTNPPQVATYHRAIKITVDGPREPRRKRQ
Chain of RUNX1 K83R/H179K;CBFβ (Q13951 1-141, chain 2 of 2): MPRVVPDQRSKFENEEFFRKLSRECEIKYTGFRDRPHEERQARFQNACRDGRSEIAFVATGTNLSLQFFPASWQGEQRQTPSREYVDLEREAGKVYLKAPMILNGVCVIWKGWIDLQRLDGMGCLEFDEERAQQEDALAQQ

[3] = target: RUNX1 H179K;CBFβ (Homo sapiens;Homo sapiens?, UniProt Q01196;Q13951 1-181;1-141, H179K|); experiment: as above; conditions: protein: recombinant;recombinant; tags: N-terminal His6;; copies: 1;1; (21 bp)
Chain of RUNX1 H179K;CBFβ (Q01196 1-181 H179K, chain 1 of 2): as the sequence (Q01196 1-181 K83R/H179K, chain 1 of 2) above, with R83K counted along it
Chain of RUNX1 H179K;CBFβ (Q13951 1-141, chain 2 of 2): as the sequence (Q13951 1-141, chain 2 of 2) above

[4] = target: RUNX1 S114L;CBFβ (Homo sapiens;Homo sapiens?, UniProt Q01196;Q13951 1-181;1-141, S114L|); experiment: as above; conditions: protein: recombinant;recombinant; tags: N-terminal His6;; copies: 1;1; (21 bp)
Chain of RUNX1 S114L;CBFβ (Q01196 1-181 S114L, chain 1 of 2): as the sequence (Q01196 1-181 K83R/H179K, chain 1 of 2) above, with R83K, S114L, K179H counted along it
Chain of RUNX1 S114L;CBFβ (Q13951 1-141, chain 2 of 2): as the sequence (Q13951 1-141, chain 2 of 2) above

[5] = target: RUNX1 R139Q;CBFβ (Homo sapiens;Homo sapiens?, UniProt Q01196;Q13951 1-181;1-141, R139Q|); experiment: as above; conditions: protein: recombinant;recombinant; tags: N-terminal His6;; copies: 1;1; (21 bp)
Chain of RUNX1 R139Q;CBFβ (Q01196 1-181 R139Q, chain 1 of 2): as the sequence (Q01196 1-181 K83R/H179K, chain 1 of 2) above, with R83K, R139Q, K179H counted along it
Chain of RUNX1 R139Q;CBFβ (Q13951 1-141, chain 2 of 2): as the sequence (Q13951 1-141, chain 2 of 2) above

[6] = target: RUNX1 K83R;CBFβ (Homo sapiens;Homo sapiens?, UniProt Q01196;Q13951 1-181;1-141, K83R|); experiment: as above; conditions: protein: recombinant;recombinant; tags: N-terminal His6;; copies: 1;1; (21 bp)
Chain of RUNX1 K83R;CBFβ (Q01196 1-181 K83R, chain 1 of 2): as the sequence (Q01196 1-181 K83R/H179K, chain 1 of 2) above, with K179H counted along it
Chain of RUNX1 K83R;CBFβ (Q13951 1-141, chain 2 of 2): as the sequence (Q13951 1-141, chain 2 of 2) above

[7] = target: RUNX1 WT (RUNT-containing);CBFβ (Homo sapiens;Homo sapiens?, UniProt Q01196;Q13951 1-181;1-141, |); experiment: as above; conditions: protein: recombinant;recombinant; tags: N-terminal His6;; copies: 1;1; (21 bp)
Chain of RUNX1 WT (RUNT-containing);CBFβ (Q01196 1-181, chain 1 of 2): as the sequence (Q01196 1-181 K83R/H179K, chain 1 of 2) above, with R83K, K179H counted along it
Chain of RUNX1 WT (RUNT-containing);CBFβ (Q13951 1-141, chain 2 of 2): as the sequence (Q13951 1-141, chain 2 of 2) above

[8] = target: RUNX1 WT (RUNT-containing) (Homo sapiens, UniProt Q01196 1-181); experiment: ITC; without CBFβ; ITC: 20 uM RUNX1 in cell, 100 uM DNA in syringe, 10 mM HEPES-NaOH pH 7.5, 180 mM NaCl, 0.005% Tween 20; temperature stated as 277 K (Methods) but 25 °C (Results); conditions: protein: recombinant; tags: N-terminal His6; (21 bp)
Chain of RUNX1 WT (RUNT-containing) (Q01196 1-181): as the sequence (Q01196 1-181 K83R/H179K, chain 1 of 2) above, with R83K, K179H counted along it

[9] = target: RUNX1 K83R/H179K (Homo sapiens, UniProt Q01196 1-181, K83R;H179K); experiment: as above; conditions: protein: recombinant; tags: N-terminal His6; (21 bp)
Chain of RUNX1 K83R/H179K (Q01196 1-181 K83R/H179K): as the sequence (Q01196 1-181 K83R/H179K, chain 1 of 2) above

[10] = target: RUNX1 S114L (Homo sapiens, UniProt Q01196 1-181, S114L); experiment: as above; conditions: protein: recombinant; tags: N-terminal His6; (21 bp)
Chain of RUNX1 S114L (Q01196 1-181 S114L): as the sequence (Q01196 1-181 K83R/H179K, chain 1 of 2) above, with R83K, S114L, K179H counted along it

[11] = target: RUNX1 R139Q (Homo sapiens, UniProt Q01196 1-181, R139Q); experiment: as above; conditions: protein: recombinant; tags: N-terminal His6; (21 bp)
Chain of RUNX1 R139Q (Q01196 1-181 R139Q): as the sequence (Q01196 1-181 K83R/H179K, chain 1 of 2) above, with R83K, R139Q, K179H counted along it

[12] = target: RUNX1 K83R (Homo sapiens, UniProt Q01196 1-181, K83R); experiment: as above; conditions: protein: recombinant; tags: N-terminal His6; (21 bp)
Chain of RUNX1 K83R (Q01196 1-181 K83R): as the sequence (Q01196 1-181 K83R/H179K, chain 1 of 2) above, with K179H counted along it

[13] = target: RUNX1 H179K (Homo sapiens, UniProt Q01196 1-181, H179K); experiment: as above; conditions: protein: recombinant; tags: N-terminal His6; (21 bp)
Chain of RUNX1 H179K (Q01196 1-181 H179K): as the sequence (Q01196 1-181 K83R/H179K, chain 1 of 2) above, with R83K counted along it

[14] = target: RUNX1 K83E (Homo sapiens, UniProt Q01196 1-181, K83E); experiment: ITC; without CBFβ; no significant enthalpy change; ITC: 20 uM RUNX1 in cell, 100 uM DNA in syringe, 10 mM HEPES-NaOH pH 7.5, 180 mM NaCl, 0.005% Tween 20; temperature stated as 277 K (Methods) but 25 °C (Results); conditions: protein: recombinant; tags: N-terminal His6; (21 bp)
Chain of RUNX1 K83E (Q01196 1-181 K83E): as the sequence (Q01196 1-181 K83R/H179K, chain 1 of 2) above, with R83E, K179H counted along it

Chain of RUNX1 K83E;CBFβ (Q01196 1-181 K83E, chain 1 of 2): as the sequence (Q01196 1-181 K83R/H179K, chain 1 of 2) above, with R83E, K179H counted along it
Chain of RUNX1 K83E;CBFβ (Q13951 1-141, chain 2 of 2): as the sequence (Q13951 1-141, chain 2 of 2) above

B1: CSF-1R promoter 21 bp DNA (dsDNA)
DNA 1: CAAACTCTGTGGTTGCCTTGC
DNA 2: GCAAGGCAACCACAGAGTTTG
[1]
  binding result: no binding
[2]
  Kd: 73 ± 5 nM
[3]
  Kd: 100 ± 40 nM
[4]
  Kd: 390 ± 80 nM
[5]
  Kd: 3350 ± 800 nM
[6]
  Kd: 160 ± 30 nM
[7]
  Kd: 230 ± 50 nM
[8]
  Kd: 490 ± 10 nM
[9]
  Kd: 290 ± 50 nM
[10]
  Kd: 700 ± 80 nM
[11]
  Kd: 1480 ± 510 nM
[12]
  Kd: 480 ± 150 nM
[13]
  Kd: 350 ± 120 nM
[14]
  binding result: no binding

From paper PMC6497270, “Thermodynamic investigation of DNA-binding affinity of wild-type and mutant transcription factor RUNX1”
